Measurements: patent publication US20170052184A1 (published 2017)
Positions count from the first letter of the chain named.

T1: HCV Core1-169 (hepatitis C virus (HCV-1), UniProt P26664 1-169)
T1 sequence: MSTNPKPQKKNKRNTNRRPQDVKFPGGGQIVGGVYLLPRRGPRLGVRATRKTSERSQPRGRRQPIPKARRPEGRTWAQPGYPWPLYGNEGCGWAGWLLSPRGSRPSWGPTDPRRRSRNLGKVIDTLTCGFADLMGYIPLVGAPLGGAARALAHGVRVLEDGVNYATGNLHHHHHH

T2: HCV bt-151-171 (Peptide 3, HCVc 151-171) (Hepatitis C virus (numbering per HCV-1), biotin (carboxy-terminal per; N-terminal per))
T2 peptide: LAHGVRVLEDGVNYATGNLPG

T3: HCV bt-141-161 (Peptide 2, HCVc 141-161) (Hepatitis C virus (numbering per HCV-1), biotin (carboxy-terminal per; N-terminal per))
T3 peptide: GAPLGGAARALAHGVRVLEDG

T4: HCV bt-134-154 (Peptide 1, HCVc 134-154) (Hepatitis C virus (numbering per HCV-1), biotin (carboxy-terminal per; N-terminal per))
T4 peptide: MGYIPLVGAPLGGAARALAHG

B1: HCV 208A-126 (antibody, V domains shown)
VH: QLQQSGPVLVKPGASVMISCKTSGYTFTENAMHWVKQSHGKSLEWIGGVNPNNGDTIFNQKFKGKATLTVDKSSNTAFTELRSLPSEESTVYYCVRRGLDFFDYWGQGTSVTVSS
VL: DIVLTQSPASLAVSLGQRATISCRASQSVSTSRYSYMHWYQQKPGQPPKLLIKYASNLESGVPARFSGSGSGTDFTLNIHPVAEEDTAAYYCQHSWEFPFTFGSGTKLEIKR
B2: HCV 208A-692 (antibody, V domains shown)
VH: QGQMQQSGAELAKPGASVKLSCKTSGFTFSSSYISWLKQKPGQSLEWIAWIFAGTGNTNYNQKFTDKAQLTVDTSSSTAYMQLSSLTTEDSAIYYCAISGTGFTYWGQGTLVTVSA
VL: EVLMTQSPLSLPVSLGDQASISCRSSQSLEHSNGNTYLEWFLQRPGQPPKLLIYKVSSRFSGVPDRFSGSGSGTDFTLKISRVEAEDLGVYYCFQGSHVPFTFGSGTKLAIKR
B3: HCV 208A-210 (antibody, V domains shown)
VH: QVQLQQSGPELVKPGASMRISCKASGYTFTSYYVHWIKQRPGQGLEWIGCIYPGDVNTDYNEKFKGKATLTADKSSSTAYMQVSTLTSEDSAIYFCVLYYYGSFAYWGQGTLVTVSA
VL: EIVLTQSPAITAASLGQNVTITCRASSSVSYMHWYRQKSGTSPQLWIYEISRRASGVPARFRASGSGTSYSLTISSMEAEDAAIYYCQQWNYPLTFGAGTKLEVKR
B4: HCV 208A-422 (antibody, V domains shown)
VH: DVQLQESGPGLVNPSQSLSLTCSVTGYSITSGYYWIWIQQSPGNKLEWMGYIKYDGGNNYSPSLKNRISIARDTSKNQCFLKLNSVTIEDTATYYCTRGSDSFDYWGQGTTLTVSS
VL: DIVLTQSPASLAVSLGQRAIISCKASQSVSFAGTNLMHWYQQKPGQQPKLLIYRASNLETGVPTRFSGSGSRTDFTLNIHPVEEDDAATYYCQQSREYYTFGGGTKLEIKR
B5: HCV 208A-442 (antibody, V domains shown)
VH: B4 VH with Q39R, S41F, C79F
VL: B4 VL
B6: HCV 208A-874 (antibody, V domains shown)
VH: QVQLQQPGAELVKPGASVKLSCKASGYTLSSYWMHWVKQRPGQGLEWIGEIHPSDSYTSYNQKFKDKATLTVDKSSSTAYMQLSSLTSEDSAVYYCARGGYYRYDEFAYWGQGTLVTVSA
VL: DIVMTQSHKFMSTSIGDRVSITCKASQNVSPAVAWYQQKPGQSPKLLIYSASSRYTGVPDRFTGSGSGTAFTFTISSVQAEDLAVYFCQQHFSTPWTFGGGTMLEIKR
B7: HCV 208B-612 (antibody, V domains shown)
VH: EVQLQQSGPELVKPGASVKMSCKASGYRFTSYVMHWVRQKPGQGLEWIGYIDPHNDDTKYSEKFRGKATLTSDKSSTTAYMELSSLTSEDSAVYYCVRYSYDRDYSPMDYWGQGTSVTVSS
VL: QIVLTQSPTLMSASPGEKVTMTCSASSTVTYIYWYQQKPGSSPRLWMYDTFNLVSGVPARFSGSRSGTSYFLTISSMEGEDAATYYCQQYSDSPYTFGGGTKLEIKR
B8: HCV 208B-672 (antibody, V domains shown)
VH: EVKLVESGGSLVQPGGSLKLSCAASGFNFNTYAMSWVRQTPEKRLEWVAYISNGGGNTYYVDTVKGRFTISRDNAKNTLYLRMSSLKSEDTAMYYCARHGLYWGYSMDYWGQGTSVTVSS
VL: DIQMTQSPSSLSASLGERVSLTCRASQDIGGSINWLQQEPDGTIKRLIYATSSLDSGVPKRFSGSRSGSDYSLTISSLESEDFVDYYCLQYASSPPTFGGGTKLEIKR
B9: HCV 208B-793 (antibody, V domains shown)
VH: EVKLVESGGGLVQPGGSLKLSCAASGFTFSSYAMSWVRQTPERRLEWVTYISNGGGSTYYSDTVKGRFTFSRDNAKNTLYLQMSSLKSEDTAMYYCARHGLGRTGFASWGQGTLVTVSA
VL: DIVMTQSHKFMSTSVGDRVSITCKASQDVGTAVAWYQQKPGQSPKLLIYWASTRHTGVPDRFTGSGSGTDFTLTISNVQSEDLADYFCQQYSNYLTFGAGTKLEVKR
B10: HCV 208B-822 (antibody, V domains shown)
VH: QVQLKQSGPGLVQPSQSLSITCTVSGFSLITYGVHWVRQSPGKGLEWLGVIWGGGSTGYNAAFVSRLNITKDNSKSQVFFKMNSLQPDDTAIYYCARNGGATVFDYWGQGTTLTVSS
VL: DIVMTQSPATLSVTPGDRVSLSCRASQTISDYLHWYQQKSHESPRLLIKYASQSISGIPSRFSGSGSGSHFTLSINSVEPEDVGVYYCQNGHSFPWTFGGGTKLEIKR
B11: HCV 208B-826 (antibody, V domains shown)
VH: DVQLVESGGGLVQAGGSRKLSCAASGFPFSSFGMHWVRQAPEKGLEWVASISSRTSKIYYADNLKGRFTISRDNPKNTLFLQMTSLGSEDTAMYYCVRSVFGNSYWFFDVWGAGTTVTVSS
VL: DIVLTQSPATLSVTPGDRVSLSCRASQRIYNYLHWYQQKSHESPRLLTKYASQSISGIPSRFSGSGSGTDFILTINSVETEDFGMYFCQQSNSWPLTFGAGTKLELRR
B12: HCV 208B-911 (antibody, V domains shown)
VH: QVHLQQPGAELVRPGVSVKLSCKASGYTFTTYSINWMKQRPGQGLEWIGNIYPSTSHTNYNQKFRDKATMTVDKSSSTAYMQLSSPTSEDSAVYYCTINAYSMDYWGQGTSVTVSS
VL: QIVLTQSPEIMSASPGEKVTITCSASSSVSFMYWFQQKPGTSPKLWIYITSNLASGVPTRFSGSGSGTSYSLTISRMEAEDAATYYCQQRSSFPYTFGGGTKLEMKR
B13: HCV 208A-207 (antibody, V domains shown)
VH: QGQLQQPGAEFVKPGASLKLSCRASGYTFTSYWIHWVKQRPGQGLEWIGEIDPSDSYINQNQKFRGKATLTVDKSSSTAYMELSGLTSEDSAVYYCARHYYGVLDSWGQGTTLTVSS
VL: B11 VL
B14: HCV 208A-210 (antibody, V domains shown)
VH: B3 VH
VL: B3 VL

How the values were obtained:
[1] = target: T1, HCV Core1-169; assay: SPR sandwich, capture mAb C11-7
[2] = target: T1, HCV Core1-169; assay: SPR sandwich, capture mAb C11-3
[3] = target: T1, HCV Core1-169; assay: SPR sandwich, capture mAb C11-14
[4] = target: T1, HCV Core1-169; assay: SPR sandwich, capture mAb C11-9
[5] = target: T2, HCV bt-151-171 (Peptide 3, HCVc 151-171); assay: EIA, captured mAb + biotin peptide
[6] = target: T3, HCV bt-141-161 (Peptide 2, HCVc 141-161); assay: EIA, captured mAb + biotin peptide
[7] = target: T4, HCV bt-134-154 (Peptide 1, HCVc 134-154); assay: EIA, captured mAb + biotin peptide

Row | Binder | expected percent binding [1] [%] | expected percent binding [2] [%] | expected percent binding [3] [%] | expected percent binding [4] [%] | Reactivity (OD 492 nm) [5] [OD units] | Reactivity (OD 492 nm) [6] [OD units] | Reactivity (OD 492 nm) [7] [OD units]
1 | B1 | 2 | 1.2 | 1.3 | ≤ 1 | – | – | –
2 | B2 | ≤ 1 | ≤ 1 | ≤ 1 | ≤ 1 | – | – | –
3 | B3 | 1.6 | 1.2 | ≤ 1 | ≤ 1 | – | – | –
4 | B4 | ≤ 1 | ≤ 1 | ≤ 1 | ≤ 1 | – | – | –
5 | B5 | 1.6 | ≤ 1 | ≤ 1 | ≤ 1 | – | – | –
6 | B6 | ≤ 1 | ≤ 1 | ≤ 1 | ≤ 1 | – | – | –
7 | B7 | – | – | – | – | 0.15 | 3.04 | 3.05
8 | B8 | – | – | – | – | 0.1 | 2.79 | 0.08
9 | B9 | – | – | – | – | 0.09 | 0.72 | 0.09
10 | B10 | – | – | – | – | 0.07 | 1.35 | 0.08
11 | B11 | – | – | – | – | 0.08 | 1.35 | 0.53
12 | B12 | – | – | – | – | 0.71 | 0.09 | 0.09
13 | B13 | – | – | – | – | 0.08 | 0.17 | 1.24
14 | B14 | – | – | – | – | 0.05 | 1.15 | 0.06
